Measurements published in EP4578875A1.

biological target: CD3 (antibody antigen coated on the ELISA plate in Examples 1 to 3) (Homo sapiens (Human)) (UniProt P07766); assay: binding activity after activation of the conjugate; method not described
Sequence (P07766 23-126 limits assumed): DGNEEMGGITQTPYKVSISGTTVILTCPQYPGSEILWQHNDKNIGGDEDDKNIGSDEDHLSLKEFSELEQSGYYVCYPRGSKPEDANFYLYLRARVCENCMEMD

| Recovery of binding force after activation (%) | Binder |
| --- | --- |
| 100 | anti-CD3 VH-Y61C mutant conjugated with PEG10K, after activation (antibody, V domains shown, Cys 61 with what is left of the linker after activation (PEG10K blocker released); structure not given) VH: EVQLVESGGGLVQPGGSLRLSCAASGFTFSTYAMNWVRQAPGKGLEWVGRIRSKYNNYATCYADSVKDRFTISRDDSKNSLYLQMNSLKTEDTAVYYCARHGNFGNSYVSWFAYWGQGTLVTVSS VL: QTVVTQEPSLTVSPGGTVTLTCRSSTGAVTTSNYANWVQQKPGQAPRGLIGGTNKRAPGVPARFSGSLLGDKAALTLLGAQPEDEAEYFCALWYSNLWVFGGGTKLTVL |
| 100 | anti-CD3 VH-Y61C mutant conjugated with PEG5K, after activation (antibody, V domains shown, Cys 61 with what is left of the linker after activation (PEG5K blocker released); structure not given) VH: EVQLVESGGGLVQPGGSLRLSCAASGFTFSTYAMNWVRQAPGKGLEWVGRIRSKYNNYATCYADSVKDRFTISRDDSKNSLYLQMNSLKTEDTAVYYCARHGNFGNSYVSWFAYWGQGTLVTVSS VL: QTVVTQEPSLTVSPGGTVTLTCRSSTGAVTTSNYANWVQQKPGQAPRGLIGGTNKRAPGVPARFSGSLLGDKAALTLLGAQPEDEAEYFCALWYSNLWVFGGGTKLTVL |
| 100 | anti-CD3 VH-Y61C mutant conjugated with PEG40K, after activation (antibody, V domains shown, Cys 61 with what is left of the linker after activation (PEG40K blocker released); structure not given) VH: EVQLVESGGGLVQPGGSLRLSCAASGFTFSTYAMNWVRQAPGKGLEWVGRIRSKYNNYATCYADSVKDRFTISRDDSKNSLYLQMNSLKTEDTAVYYCARHGNFGNSYVSWFAYWGQGTLVTVSS VL: QTVVTQEPSLTVSPGGTVTLTCRSSTGAVTTSNYANWVQQKPGQAPRGLIGGTNKRAPGVPARFSGSLLGDKAALTLLGAQPEDEAEYFCALWYSNLWVFGGGTKLTVL |
| 100 | anti-CD3 VH-Y61C mutant conjugated with PEG20K, after activation (antibody, V domains shown, Cys 61 with what is left of the linker after activation (PEG20K blocker released); structure not given) VH: EVQLVESGGGLVQPGGSLRLSCAASGFTFSTYAMNWVRQAPGKGLEWVGRIRSKYNNYATCYADSVKDRFTISRDDSKNSLYLQMNSLKTEDTAVYYCARHGNFGNSYVSWFAYWGQGTLVTVSS VL: QTVVTQEPSLTVSPGGTVTLTCRSSTGAVTTSNYANWVQQKPGQAPRGLIGGTNKRAPGVPARFSGSLLGDKAALTLLGAQPEDEAEYFCALWYSNLWVFGGGTKLTVL |

biological target: CD3 (antibody antigen coated on the ELISA plate in Examples 1 to 3) (Homo sapiens (Human)) (UniProt P07766); assay: binding activity after conjugation with different R1; method not described

| Blocking fold after conjugation [fold] | Binder |
| --- | --- |
| 400 | anti-CD3 antibody mutant VH-Y61C conjugated with Molecule I (+20K) (antibody, V domains shown, Molecule I (+20K; cleavable linker with PEG20K, shown only as a drawing) conjugated on Cys 61) VH: EVQLVESGGGLVQPGGSLRLSCAASGFTFSTYAMNWVRQAPGKGLEWVGRIRSKYNNYATCYADSVKDRFTISRDDSKNSLYLQMNSLKTEDTAVYYCARHGNFGNSYVSWFAYWGQGTLVTVSS VL: QTVVTQEPSLTVSPGGTVTLTCRSSTGAVTTSNYANWVQQKPGQAPRGLIGGTNKRAPGVPARFSGSLLGDKAALTLLGAQPEDEAEYFCALWYSNLWVFGGGTKLTVL |
| 10 | anti-CD3 VH-Y61C mutant conjugated with cleavable linker and R1 = PEG5K (antibody, V domains shown, cleavable linker peptide P with blocker PEG5K on Cys 61) VH: EVQLVESGGGLVQPGGSLRLSCAASGFTFSTYAMNWVRQAPGKGLEWVGRIRSKYNNYATCYADSVKDRFTISRDDSKNSLYLQMNSLKTEDTAVYYCARHGNFGNSYVSWFAYWGQGTLVTVSS VL: QTVVTQEPSLTVSPGGTVTLTCRSSTGAVTTSNYANWVQQKPGQAPRGLIGGTNKRAPGVPARFSGSLLGDKAALTLLGAQPEDEAEYFCALWYSNLWVFGGGTKLTVL |
| 20 | anti-CD3 VH-Y61C mutant conjugated with cleavable linker and R1 = PEG10K (antibody, V domains shown, cleavable linker peptide P with blocker PEG10K on Cys 61) VH: EVQLVESGGGLVQPGGSLRLSCAASGFTFSTYAMNWVRQAPGKGLEWVGRIRSKYNNYATCYADSVKDRFTISRDDSKNSLYLQMNSLKTEDTAVYYCARHGNFGNSYVSWFAYWGQGTLVTVSS VL: QTVVTQEPSLTVSPGGTVTLTCRSSTGAVTTSNYANWVQQKPGQAPRGLIGGTNKRAPGVPARFSGSLLGDKAALTLLGAQPEDEAEYFCALWYSNLWVFGGGTKLTVL |
| 500 | anti-CD3 VH-Y61C mutant conjugated with cleavable linker and R1 = PEG40K (antibody, V domains shown, cleavable linker peptide P with blocker PEG40K on Cys 61) VH: EVQLVESGGGLVQPGGSLRLSCAASGFTFSTYAMNWVRQAPGKGLEWVGRIRSKYNNYATCYADSVKDRFTISRDDSKNSLYLQMNSLKTEDTAVYYCARHGNFGNSYVSWFAYWGQGTLVTVSS VL: QTVVTQEPSLTVSPGGTVTLTCRSSTGAVTTSNYANWVQQKPGQAPRGLIGGTNKRAPGVPARFSGSLLGDKAALTLLGAQPEDEAEYFCALWYSNLWVFGGGTKLTVL |

biological target: CD3 (antibody antigen coated on the ELISA plate in Examples 1 to 3) (Homo sapiens (Human)) (UniProt P07766); assay: binding activity of the conjugated mutant compared with the wild-type antibody (ELISA as in Example 1)

| Blocking fold after conjugation (+20K) [fold] | Binder |
| --- | --- |
| 400 | anti-CD3 antibody mutant VH-Y61C conjugated with Molecule I (+20K) (antibody, V domains shown, Molecule I (+20K; cleavable linker with PEG20K, shown only as a drawing) conjugated on Cys 61) VH: EVQLVESGGGLVQPGGSLRLSCAASGFTFSTYAMNWVRQAPGKGLEWVGRIRSKYNNYATCYADSVKDRFTISRDDSKNSLYLQMNSLKTEDTAVYYCARHGNFGNSYVSWFAYWGQGTLVTVSS VL: QTVVTQEPSLTVSPGGTVTLTCRSSTGAVTTSNYANWVQQKPGQAPRGLIGGTNKRAPGVPARFSGSLLGDKAALTLLGAQPEDEAEYFCALWYSNLWVFGGGTKLTVL |
| 2 | anti-CD3 antibody mutant VL-N96C conjugated with Molecule I (+20K) (antibody, V domains shown, Molecule I (+20K, shown only as a drawing) conjugated on Cys 96) VH: EVQLVESGGGLVQPGGSLRLSCAASGFTFSTYAMNWVRQAPGKGLEWVGRIRSKYNNYATYYADSVKDRFTISRDDSKNSLYLQMNSLKTEDTAVYYCARHGNFGNSYVSWFAYWGQGTLVTVSS VL: QTVVTQEPSLTVSPGGTVTLTCRSSTGAVTTSNYANWVQQKPGQAPRGLIGGTNKRAPGVPARFSGSLLGDKAALTLLGAQPEDEAEYFCALWYSCLWVFGGGTKLTVL |
| 5 | anti-CD3 antibody mutant VL-W93C conjugated with Molecule I (+20K) (antibody, V domains shown, Molecule I (+20K, shown only as a drawing) conjugated on Cys 93) VH: EVQLVESGGGLVQPGGSLRLSCAASGFTFSTYAMNWVRQAPGKGLEWVGRIRSKYNNYATYYADSVKDRFTISRDDSKNSLYLQMNSLKTEDTAVYYCARHGNFGNSYVSWFAYWGQGTLVTVSS VL: QTVVTQEPSLTVSPGGTVTLTCRSSTGAVTTSNYANWVQQKPGQAPRGLIGGTNKRAPGVPARFSGSLLGDKAALTLLGAQPEDEAEYFCALCYSNLWVFGGGTKLTVL |
| 30 | anti-CD3 antibody mutant VL-Y94C conjugated with Molecule I (+20K) (antibody, V domains shown, Molecule I (+20K, shown only as a drawing) conjugated on Cys 94) VH: EVQLVESGGGLVQPGGSLRLSCAASGFTFSTYAMNWVRQAPGKGLEWVGRIRSKYNNYATYYADSVKDRFTISRDDSKNSLYLQMNSLKTEDTAVYYCARHGNFGNSYVSWFAYWGQGTLVTVSS VL: QTVVTQEPSLTVSPGGTVTLTCRSSTGAVTTSNYANWVQQKPGQAPRGLIGGTNKRAPGVPARFSGSLLGDKAALTLLGAQPEDEAEYFCALWCSNLWVFGGGTKLTVL |
